Article PMC10786891, “Massively parallel profiling of RNA-targeting CRISPR-Cas13d”
Where a chain is given by its changes, count along the chain named. In names and notes the source's numbering stands.

B1: target 1 U8A,G17U (mixed)
RNA 1: CACCCGUGCAAAAAUGCAGGGGUCUAAAACUGAGCGGAUAACCUCUCUAUGG
RNA 2: GGGAAUGGAUCCACAUCUACGAAUUCGUACCAUAUAGAGGUUAACCGCUCACCGAGAUCGGAAGAGCACACGU
B2: target 1 insU 3' of 4 (mixed)
RNA 1: B1 RNA 1
RNA 2: GGGAAUGGAUCCACAUCUACGAAUUCGUACCAUAGAGAGGUUAUCCGCUUCACCGAGAUCGGAAGAGCACACGU
B3: target 1 insA 3' of 10,insC 3' of 3 (mixed)
RNA 1: B1 RNA 1
RNA 2: GGGAAUGGAUCCACAUCUACGAAUUCGUACCAUAGAGAGGUUAAUCCGCUCCACCGAGAUCGGAAGAGCACACGU
B4: target 1 A9U,G15A (mixed)
RNA 1: B1 RNA 1
RNA 2: B1 RNA 2 with U35G, G37A, A43U, A44U
B5: target 1 insA 3' of 7,insG 3' of 4 (mixed)
RNA 1: B1 RNA 1
RNA 2: B3 RNA 2 with A44U, U45C, C46A, U50G, C51U
B6: target 1 U8A,A16G (mixed)
RNA 1: B1 RNA 1
RNA 2: B1 RNA 2 with U35G, A36G
B7: target 1 insC 3' of 22,insG 3' of 8 (mixed)
RNA 1: B1 RNA 1
RNA 2: GGGAAUGGAUCCACAUCUACGAAUUCGUACCCAUAGAGAGGUUAUGCCGCUCACCGAGAUCGGAAGAGCACACGU
B8: target 1 C7G,C21U (mixed)
RNA 1: B1 RNA 1
RNA 2: B1 RNA 2 with C31U, U35G, A44U, C45G
B9: target 1 A1U,A9C (mixed)
RNA 1: B1 RNA 1
RNA 2: B1 RNA 2 with U35G, A43C, A44U, A51U
B10: target 1 insA 3' of 17,insG 3' of 14 (mixed)
RNA 1: B1 RNA 1
RNA 2: B7 RNA 2 with C32A, A33U, U34A, A35G, G36A, U42G, A44U, U45A, G46U
B11: target 1 G13C,G15C (mixed)
RNA 1: B1 RNA 1
RNA 2: B1 RNA 2 with U35G, G37C, G39C, A44U
B12: target 1 insG 3' of 14,insU 3' of 13 (mixed)
RNA 1: B1 RNA 1
RNA 2: B3 RNA 2 with U42G, A43U, A44U, U45A, C46U, G48C, C49G, U50C, C51U
B13: target 1 insU 3' of 9,insU 3' of 1 (mixed)
RNA 1: B1 RNA 1
RNA 2: B3 RNA 2 with A44U, C52A, A53U
B14: target 1 U10G,G15A (mixed)
RNA 1: B1 RNA 1
RNA 2: B1 RNA 2 with U35G, G37A, U42G, A44U
B15: target 1 insA 3' of 22,insA 3' of 4 (mixed)
RNA 1: B1 RNA 1
RNA 2: B7 RNA 2 with C31A, G46C, C48G, G49C, C50A
B16: target 1 U8C,G12C (mixed)
RNA 1: B1 RNA 1
RNA 2: B1 RNA 2 with U35G, G40C, A44C
B17: target 1 C6A,G13U (mixed)
RNA 1: B1 RNA 1
RNA 2: B1 RNA 2 with U35G, G39U, A44U, C46A
B18: target 1 insA 3' of 11,insA 3' of 5 (mixed)
RNA 1: B1 RNA 1
RNA 2: B3 RNA 2 with U42A, A43U, C49A, U50C, C51U
B19: target 1 G5U,C7A (mixed)
RNA 1: B1 RNA 1
RNA 2: B1 RNA 2 with U35G, A44U, C45A, G47U
B20: target 1 insG 3' of 8,insU 3' of 7 (mixed)
RNA 1: B1 RNA 1
RNA 2: B3 RNA 2 with A44U, U45G, C47U, G48C, C49G, U50C, C51U
B21: target 1 insA 3' of 22,insG 3' of 11 (mixed)
RNA 1: B1 RNA 1
RNA 2: B7 RNA 2 with C31A, U43G, A44U, U45A, G46U
B22: target 1 U8G,C21A (mixed)
RNA 1: B1 RNA 1
RNA 2: B1 RNA 2 with C31A, U35G, A44G
B23: target 1 insU 3' of 21,insC 3' of 11 (mixed)
RNA 1: B1 RNA 1
RNA 2: B7 RNA 2 with C32U, U43C, A44U, U45A, G46U
B24: target 1 C2A,U11A (mixed)
RNA 1: B1 RNA 1
RNA 2: B1 RNA 2 with U35G, U41A, A44U, C50A
B25: target 1 insC 3' of 20,insG 3' of 7 (mixed)
RNA 1: B1 RNA 1
RNA 2: B7 RNA 2 with C32A, A33C, G46C, C47G
B26: target 1 insA 3' of 17,insU 3' of 16 (mixed)
RNA 1: B1 RNA 1
RNA 2: GGGAAUGGAUCCACAUCUACGAAUUCGUACCAUAGAAUGAGGUUAUCCGCUCACCGAGAUCGGAAGAGCACACGU
B27: target 1 insU 3' of 15,insU 3' of 15 (mixed)
RNA 1: B1 RNA 1
RNA 2: B26 RNA 2 with A37G, G39U
B28: target 1 insA 3' of 21,insA 3' of 13 (mixed)
RNA 1: B1 RNA 1
RNA 2: B7 RNA 2 with C32A, G41A, U42G, A44U, U45A, G46U

Molecular target: T1, EsCas13d, nuclease-dead (Eubacterium siraeum, UniProt B0MS50, R295A;H300A;R849A;H854A)
T1 sequence: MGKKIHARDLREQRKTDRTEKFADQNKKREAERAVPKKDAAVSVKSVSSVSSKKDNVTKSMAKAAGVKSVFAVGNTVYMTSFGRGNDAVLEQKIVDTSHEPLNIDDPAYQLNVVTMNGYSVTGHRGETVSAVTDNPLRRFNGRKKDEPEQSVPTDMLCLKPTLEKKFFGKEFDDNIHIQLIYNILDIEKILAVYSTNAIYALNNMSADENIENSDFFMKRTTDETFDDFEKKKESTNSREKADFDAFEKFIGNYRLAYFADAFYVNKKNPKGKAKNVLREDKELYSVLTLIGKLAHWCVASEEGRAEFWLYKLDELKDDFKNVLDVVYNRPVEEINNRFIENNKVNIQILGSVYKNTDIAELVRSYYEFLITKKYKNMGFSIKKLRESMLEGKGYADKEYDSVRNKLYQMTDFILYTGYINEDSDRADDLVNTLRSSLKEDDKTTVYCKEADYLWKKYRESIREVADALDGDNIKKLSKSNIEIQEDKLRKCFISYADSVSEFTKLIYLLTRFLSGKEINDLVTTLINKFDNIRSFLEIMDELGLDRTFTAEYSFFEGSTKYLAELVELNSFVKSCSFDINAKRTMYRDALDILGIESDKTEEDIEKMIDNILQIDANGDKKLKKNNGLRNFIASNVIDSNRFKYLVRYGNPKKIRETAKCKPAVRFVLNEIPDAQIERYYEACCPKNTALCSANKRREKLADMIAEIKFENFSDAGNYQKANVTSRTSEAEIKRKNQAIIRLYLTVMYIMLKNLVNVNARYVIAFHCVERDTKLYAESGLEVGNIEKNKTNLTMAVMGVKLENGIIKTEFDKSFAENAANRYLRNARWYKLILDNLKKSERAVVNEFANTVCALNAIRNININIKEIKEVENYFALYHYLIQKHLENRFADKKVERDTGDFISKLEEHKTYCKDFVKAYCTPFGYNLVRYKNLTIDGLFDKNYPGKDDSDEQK
Test: crRNA (strand 1, pre-loaded); Mg2+; 40 mM Tris-HCl pH 7.5, 150 mM NaCl, 6 mM MgCl2, 1 mM DTT, 0.1% Tween-20, 0.2 mg/ml BSA; 25 C; 10 min per concentration, then washed
Conditions: tags: His6-TwinStrep-SUMO cleaved; N-terminal SNAP kept (SNAP-Surface 488); label: 3' end held by stalled T7 RNA polymerase

Binder	Kd [nM]
B1	61 ± 8
B2	8.7 ± 0.7
B3	10.3 ± 0.6
B4	19.1 ± 1.4
B5	5.33 ± 0.17
B6	64 ± 6
B7	33 ± 4
B8	6.7 ± 0.31
B9	15.4 ± 1.7
B10	15.5 ± 0.7
B11	52 ± 22
B12	22.8 ± 2.7
B13	32 ± 7
B14	53 ± 15
B15	7.8 ± 1.1
B16	18.1 ± 0.6
B17	34 ± 4
B18	8.7 ± 0.4
B19	56 ± 9
B20	14.1 ± 0.5
B21	42 ± 8
B22	54 ± 11
B23	81 ± 21
B24	21.6 ± 1.4
B25	8.8 ± 0.4
B26	38 ± 8
B27	17.6 ± 1.2
B28	11.7 ± 0.7
